Assay results from patent US20260226158A1 (DE NOVO BIOTHERAPEUTICS, published 2026).
Read-outs that look alike come from different tables or passages of the source.

Experiments:
monkey NKp46 protein [1] = target: monkey NKp46 protein (monkey); test: ELISA on coated monkey NKp46 protein (title 'Cyno NKp46'), HRP anti-human IgG, OD 450 nm
Description: (§1) Human NKp46 protein and monkey NKp46 protein were each added at a concentration of 0.5 μg/mL to a 96-well plate and reacted for 1 hour at 37° C., followed by three washes with an appropriate volume of washing solution (0.05% Tween20, PBS), and then treated with 150 μL of blocking solution (1% BSA, PBS) for 1 hour at 37° C. After washing three times with an appropriate volume of washing solution (0.05% Tween20, PBS), the wells were treated with 3 serial dilutions of 1 μg/mL of anti-human NKp46 antibody at the maximum concentration and reacted for 1 hour at 37° C. […] The degree of binding between antigen and antibody was detected with 3′,5,5′-tetramethylbenzidine solution. Finally, the reaction was stopped by adding 1M HCl, and the absorbance was measured at 450 nm using an ELISA reader (Thermo Fisher Scientific). Four antibodies (1-2, 1-4-2, 1-8, and 1-10) that specifically bind to human NKp46 and monkey NKp46 were selected by the above two binding tests.

[2] = target: T1, 6506GJ130-1A: Human NKP46 Recombinant Protein (His) (human, UniProt O76036 22-258, limits assumed); test: ELISA on coated human NKp46 protein, HRP anti-human IgG, OD 450 nm [label printed at foot of D00002]]
T1 construct: also called human NKp46 protein; not shown: His tag
Description: as §1

monkey NKp46 protein [3] = target: monkey NKp46 protein (monkey); test: ELISA on coated monkey NKp46 protein (title 'Cyno NKp46'), HRP anti-human IgG, OD 450 nm; remark: listed apart in the source
[4] = target: T1, 6506GJ130-1A: Human NKP46 Recombinant …; test: ELISA on coated human NKp46 protein (title 'Human NKp46'), HRP anti-human IgG, OD 450 nm [label printed on D00006]]

T1 sequence (O76036 22-258 limits assumed): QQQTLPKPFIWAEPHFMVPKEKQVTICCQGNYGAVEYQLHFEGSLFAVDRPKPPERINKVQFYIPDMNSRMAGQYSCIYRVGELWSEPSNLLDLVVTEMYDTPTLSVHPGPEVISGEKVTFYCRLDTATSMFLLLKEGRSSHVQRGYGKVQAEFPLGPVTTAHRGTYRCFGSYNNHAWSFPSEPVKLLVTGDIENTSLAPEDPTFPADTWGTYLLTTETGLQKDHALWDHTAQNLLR
monkey NKp46 protein (monkey), sequence (Q95JB9 22-257): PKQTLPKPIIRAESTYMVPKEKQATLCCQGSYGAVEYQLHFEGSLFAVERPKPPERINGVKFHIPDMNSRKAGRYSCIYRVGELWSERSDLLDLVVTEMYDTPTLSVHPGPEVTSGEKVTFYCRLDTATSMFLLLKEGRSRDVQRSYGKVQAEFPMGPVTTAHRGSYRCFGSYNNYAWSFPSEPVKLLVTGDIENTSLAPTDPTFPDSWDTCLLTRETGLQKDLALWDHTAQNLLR

| Binder | EC50 (read off the curve) (monkey NKp46 protein [1]) [nM] | EC50 (read off the curve) [2] [nM] | EC50 (read off the curve) (monkey NKp46 protein [3]) [nM] | EC50 (read off the curve) [4] [nM] |
| --- | --- | --- | --- | --- |
| u6506gj130-1-10 (antibody, human IgG4 S228P, kappa, V domains shown, Beacon screening) VH: QVQLQQPGAELVKPGASVKLSCKASGYIFTSYWMHWVKQRPGQGLEWIGMIHPNSGSTNYNEKFKSKATLTVDKSSSTAYMQLSSLTSEDSAVYYCAREGNWARGYFEYWGQGTTLTVSS VL: DIKMTQSPSSMYASLGERVTITCKASQDINSYLSWFQQKPGKSPKTLIYRANRLVDGVPSRFSGSGSGQDYSLTISSLEYEDVGMYYCLQYDEFPYTFGGGTKLEIKR | ~0.2 | ~0.2 | – | – |
| 32C9F4 (antibody, human IgG4 S228P, kappa, V domains shown, Hybridoma screening; also called 2-2) VH: QVQLQQPGAELVKPGASVKLSCKASGYTFTSYWMHWVKQRPGQGLEWIGMIHPNSGVTKYNEKFKSKATLTVDKSSSTAYMQLSSLTSEDSAVYFCAGDGRFAYWGQGTLVTVSA VL: DIQMTQSPSSLSASLGERVSLTCRASQDIGSSLNWLQQEPDGTIKRLIYATSSLDSGVPKRFSGSRSGSDYSLTISSLESEDFVDYYCLQYASSPWTFGGGTKLEIKR | – | – | ~0.03 | ~0.05 |
| 45A10D5 (antibody, human IgG4 S228P, kappa, V domains shown, Hybridoma screening; also called 2-1) VH: QVQLQQPGAELVKPGASVKLSCKASGYTFTSYWMHWVKQRPGQGLEWIGMIHPNSGSTNYNEKFKSKATLTVDKSSSTAYMQLSSLTSEDSAVYYCVYDGRFAYWGQGTLVTVSA VL: DIQMTQSPSSLSASLGERVSLTCRASQDIGSSLNWLQQEPDGTIKRLIYATSSLDSGVPKRFSGSRSGSDYSLTISSLESEDFVDYYCLQYASSPFTFGSGTKLEIKR | – | – | ~0.06 | ~0.05 |
| 28E10B12 (antibody, human IgG4 S228P, kappa, V domains shown, Hybridoma screening; also called 2-3) VH: QVQLQQPGAELVKPGASVKLSCKASGYTFTSYWMNWVKQRPGQGLEWIGMIHPNSDITNYNEKFKSQATLTVDKSSSTAYMQLSSLTSEDSAVYYCARHGRFDYWGQGTTLTVSS VL: DIQMTQSPSSLSASLGERVTLTCRASQDIGSSLNWLQQEPDGTIKRLIYATSSLDSGVPKRFSGSRSGSDYSLTISSLESEDFVDYYCLQYASSPFTFGSGTKLEIKR | – | – | ~0.03 | ~0.03 |
| u6506gj130-1-2 (antibody, human IgG4 S228P, kappa, V domains shown, Beacon screening) VH: EVQLQQSGPELVKPGASVKISCQASGYTFTDYYLNWVKQSHGKSLEWIGDIDPHNGGTSYNQKFKDKATLTVDKSSSTAYMELRSLTSEDSAVYYCARFPIYYSGSSPMDYWGQGTSVTVSS VL: DIQMTQSPASLSASVGETVTITCRTNENIFSYLAWYQQKQGKSPQLLVYNAKTLAEGVPSRFSGSASGTQFSLKINTLQPEDFGSYYCQHHYGTPYTFGGGTKLEIIR | – | ~0.2 | – | – |
